Data: the supplement of paper PMC10065799, “High-throughput profiling of sequence recognition by tyrosine kinases and SH2 domains using bacterial peptide display” (eLife, 2023)

Each sequence was assayed on c-Abl (mouse) (assay: phosphorylation enrichment, bacterial display (enrichment ratio); higher = better substrate or ligand; peptides without Tyr show the background).
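Further: 11-residue human phosphosite peptides and single-mutation variants displayed on the E. coli surface, counted by deep sequencing, each peptide's frequency after selection divided by its frequency in the unselected input library; frequency after pTyr selection over input frequency; kinase dosed for 20-30% of maximal phosphorylation in three min.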

| Sequence | phosphorylation enrichment |
| --- | --- |
| FRPPYYHRNCM [HGD_Y334] | 0.799 |
| LEGKEYRMSGE [KRT3_Y511_E509K] | 0.583 |
| PLDGEYFTLQV [TP53_Y327_I332V] | 1.02 |
| DNEALYDTCFR [TUBB2B_Y208_I210T] | 2.25 |
| AALVQYYMEHH [PTPN11_Y80_E76A] | 0.49 |
| INMKEYCKKDY [NTN1_Y490_K489E] | 0.661 |
| SLEKGYELPDG [ACTC1_Y242_S241G] | 0.6 |
| RYVTRSIYNRE [HLA-DQB1_Y62_Y62S] | 0.735 |
| CENCHYPILPL [LCK_Y25_V28L] | 0.607 |
| MHRRQYELLGG [GNAS_Y391_L388R] | 0.416 |
| DYSLKYATDIP [APC_Y1183] | 0.736 |
| EIKLAYRRRPP [GRIN2B_Y1109_E1106K] | 0.756 |
| NIEPIYLNMLL [ATR_Y317_V316I] | 15.1 |
| AGIVDYNIIGW [MYH7_Y588] | 0.619 |
| VLVSQYEKLNA [AMZ2_Y26] | 0.578 |
| FSAPNCCYRCG [PPP2CA_Y265_Y265C] | 0.833 |
| RYVSRYIYNRE [HLA-DQB1_Y62_T60S] | 0.666 |

| Sequence | phosphorylation enrichment |
| --- | --- |
| IFSGIYFKPES [L2HGDH_Y102_H98Y_YF] | 11.2 |
| YENGEYIIRQG [PRKG1_Y247] | 0.66 |
| RLSVDCGKKSK [TUBA4A_Y161_Y161C] | 0.828 |
| KSVITYSPTTG [ITGB3BP_Y32] | 0.447 |
| CTTIHYIYMCN [TP53_Y234_N235I] | 0.742 |
| KMKGEYYRYLA [YWHAG_Y130_D129E] | 1.34 |
| LSPPVYLTNEW [NRK_Y885_I880L] | 1.21 |
| LIEQAYDNLHE [PRPF8_Y871_P874L] | 0.479 |
| FCRIMYDIFPF [INTS13_Y67_YF] | 1.38 |
| GRTNIYNNKKD [SLC26A3_Y520_K521N] | 0.433 |
| LISVSYDDWDY [GRIN2A_Y281] | 1.01 |
| ETAENYLGFTA [HSPA9_Y181_H184Y_YF] | 0.879 |
| MKKMHYVDPDH [ST3GAL5_Y99] | 0.41 |
| DASAVYLHDFQ [PLCG2_Y242] | 0.573 |
| DFPGIYSGYDD [POLR1C_Y33_N32I] | 0.796 |
| IVAREYYSDAD [CAMK2A_Y106_E109D] | 0.828 |

The sequences below were run against FGFR3 (UniProt P22607) in the same assay as above.
Sequence of FGFR3 (P22607 whole entry, looked up): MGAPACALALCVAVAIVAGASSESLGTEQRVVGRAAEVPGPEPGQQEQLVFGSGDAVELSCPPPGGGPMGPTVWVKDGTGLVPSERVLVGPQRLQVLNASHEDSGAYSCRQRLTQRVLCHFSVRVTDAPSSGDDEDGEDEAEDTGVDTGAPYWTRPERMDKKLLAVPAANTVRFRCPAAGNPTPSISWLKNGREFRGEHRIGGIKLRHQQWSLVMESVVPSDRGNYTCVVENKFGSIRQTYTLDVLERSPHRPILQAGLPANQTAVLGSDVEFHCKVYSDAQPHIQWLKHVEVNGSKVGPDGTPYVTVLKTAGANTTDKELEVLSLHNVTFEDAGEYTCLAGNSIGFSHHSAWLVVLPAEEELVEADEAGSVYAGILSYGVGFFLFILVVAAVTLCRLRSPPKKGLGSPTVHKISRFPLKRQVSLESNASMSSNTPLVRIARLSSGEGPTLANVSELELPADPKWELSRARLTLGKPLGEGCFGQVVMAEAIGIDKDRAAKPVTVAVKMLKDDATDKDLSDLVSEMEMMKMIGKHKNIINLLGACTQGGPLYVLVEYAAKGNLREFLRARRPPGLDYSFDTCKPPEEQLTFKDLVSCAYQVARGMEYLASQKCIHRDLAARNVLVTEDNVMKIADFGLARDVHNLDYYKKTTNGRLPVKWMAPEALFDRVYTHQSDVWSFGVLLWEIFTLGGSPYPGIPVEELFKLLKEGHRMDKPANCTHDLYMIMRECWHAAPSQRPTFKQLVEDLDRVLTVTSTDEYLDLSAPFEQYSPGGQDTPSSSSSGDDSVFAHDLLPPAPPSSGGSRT

| Sequence | phosphorylation enrichment |
| --- | --- |
| FRPPYYHRNCM [HGD_Y334] | 0.504 |
| LEGKEYRMSGE [KRT3_Y511_E509K] | 0.618 |
| PLDGEYFTLQV [TP53_Y327_I332V] | 10.6 |
| DNEALYDTCFR [TUBB2B_Y208_I210T] | 0.888 |
| AALVQYYMEHH [PTPN11_Y80_E76A] | 0.767 |
| INMKEYCKKDY [NTN1_Y490_K489E] | 0.595 |
| SLEKGYELPDG [ACTC1_Y242_S241G] | 0.545 |
| RYVTRSIYNRE [HLA-DQB1_Y62_Y62S] | 0.327 |
| CENCHYPILPL [LCK_Y25_V28L] | 0.632 |
| MHRRQYELLGG [GNAS_Y391_L388R] | 0.425 |
| DYSLKYATDIP [APC_Y1183] | 0.913 |
| EIKLAYRRRPP [GRIN2B_Y1109_E1106K] | 0.584 |
| NIEPIYLNMLL [ATR_Y317_V316I] | 7.79 |
| AGIVDYNIIGW [MYH7_Y588] | 0.909 |
| VLVSQYEKLNA [AMZ2_Y26] | 0.548 |
| FSAPNCCYRCG [PPP2CA_Y265_Y265C] | 0.76 |
| RYVSRYIYNRE [HLA-DQB1_Y62_T60S] | 0.739 |

| Sequence | phosphorylation enrichment |
| --- | --- |
| IFSGIYFKPES [L2HGDH_Y102_H98Y_YF] | 1.4 |
| YENGEYIIRQG [PRKG1_Y247] | 0.611 |
| RLSVDCGKKSK [TUBA4A_Y161_Y161C] | 0.788 |
| KSVITYSPTTG [ITGB3BP_Y32] | 0.464 |
| CTTIHYIYMCN [TP53_Y234_N235I] | 0.548 |
| KMKGEYYRYLA [YWHAG_Y130_D129E] | 3.14 |
| LSPPVYLTNEW [NRK_Y885_I880L] | 0.758 |
| LIEQAYDNLHE [PRPF8_Y871_P874L] | 1.05 |
| FCRIMYDIFPF [INTS13_Y67_YF] | 0.743 |
| GRTNIYNNKKD [SLC26A3_Y520_K521N] | 0.349 |
| LISVSYDDWDY [GRIN2A_Y281] | 1.05 |
| ETAENYLGFTA [HSPA9_Y181_H184Y_YF] | 0.807 |
| MKKMHYVDPDH [ST3GAL5_Y99] | 0.357 |
| DASAVYLHDFQ [PLCG2_Y242] | 0.543 |
| DFPGIYSGYDD [POLR1C_Y33_N32I] | 0.696 |
| IVAREYYSDAD [CAMK2A_Y106_E109D] | 0.633 |

Each sequence was assayed on c-Src in the same assay as above.

| Sequence | phosphorylation enrichment |
| --- | --- |
| FRPPYYHRNCM [HGD_Y334] | 0.442 |
| LEGKEYRMSGE [KRT3_Y511_E509K] | 0.415 |
| PLDGEYFTLQV [TP53_Y327_I332V] | 2.09 |
| DNEALYDTCFR [TUBB2B_Y208_I210T] | 5.2 |
| AALVQYYMEHH [PTPN11_Y80_E76A] | 0.541 |
| INMKEYCKKDY [NTN1_Y490_K489E] | 0.429 |
| SLEKGYELPDG [ACTC1_Y242_S241G] | 0.368 |
| RYVTRSIYNRE [HLA-DQB1_Y62_Y62S] | 0.705 |
| CENCHYPILPL [LCK_Y25_V28L] | 0.436 |
| MHRRQYELLGG [GNAS_Y391_L388R] | 0.336 |
| DYSLKYATDIP [APC_Y1183] | 0.571 |
| EIKLAYRRRPP [GRIN2B_Y1109_E1106K] | 0.885 |
| NIEPIYLNMLL [ATR_Y317_V316I] | 6.6 |
| AGIVDYNIIGW [MYH7_Y588] | 0.454 |
| VLVSQYEKLNA [AMZ2_Y26] | 0.389 |
| FSAPNCCYRCG [PPP2CA_Y265_Y265C] | 0.5 |
| RYVSRYIYNRE [HLA-DQB1_Y62_T60S] | 1.08 |

| Sequence | phosphorylation enrichment |
| --- | --- |
| IFSGIYFKPES [L2HGDH_Y102_H98Y_YF] | 3.26 |
| YENGEYIIRQG [PRKG1_Y247] | 0.542 |
| RLSVDCGKKSK [TUBA4A_Y161_Y161C] | 0.471 |
| KSVITYSPTTG [ITGB3BP_Y32] | 0.462 |
| CTTIHYIYMCN [TP53_Y234_N235I] | 0.263 |
| KMKGEYYRYLA [YWHAG_Y130_D129E] | 1.07 |
| LSPPVYLTNEW [NRK_Y885_I880L] | 0.909 |
| LIEQAYDNLHE [PRPF8_Y871_P874L] | 0.325 |
| FCRIMYDIFPF [INTS13_Y67_YF] | 3 |
| GRTNIYNNKKD [SLC26A3_Y520_K521N] | 0.435 |
| LISVSYDDWDY [GRIN2A_Y281] | 0.652 |
| ETAENYLGFTA [HSPA9_Y181_H184Y_YF] | 0.569 |
| MKKMHYVDPDH [ST3GAL5_Y99] | 0.402 |
| DASAVYLHDFQ [PLCG2_Y242] | 0.447 |
| DFPGIYSGYDD [POLR1C_Y33_N32I] | 5.19 |
| IVAREYYSDAD [CAMK2A_Y106_E109D] | 0.559 |

Each sequence was assayed against Jak2 (UniProt O60674) in the same assay as above.
Sequence of Jak2 (O60674 whole entry, looked up): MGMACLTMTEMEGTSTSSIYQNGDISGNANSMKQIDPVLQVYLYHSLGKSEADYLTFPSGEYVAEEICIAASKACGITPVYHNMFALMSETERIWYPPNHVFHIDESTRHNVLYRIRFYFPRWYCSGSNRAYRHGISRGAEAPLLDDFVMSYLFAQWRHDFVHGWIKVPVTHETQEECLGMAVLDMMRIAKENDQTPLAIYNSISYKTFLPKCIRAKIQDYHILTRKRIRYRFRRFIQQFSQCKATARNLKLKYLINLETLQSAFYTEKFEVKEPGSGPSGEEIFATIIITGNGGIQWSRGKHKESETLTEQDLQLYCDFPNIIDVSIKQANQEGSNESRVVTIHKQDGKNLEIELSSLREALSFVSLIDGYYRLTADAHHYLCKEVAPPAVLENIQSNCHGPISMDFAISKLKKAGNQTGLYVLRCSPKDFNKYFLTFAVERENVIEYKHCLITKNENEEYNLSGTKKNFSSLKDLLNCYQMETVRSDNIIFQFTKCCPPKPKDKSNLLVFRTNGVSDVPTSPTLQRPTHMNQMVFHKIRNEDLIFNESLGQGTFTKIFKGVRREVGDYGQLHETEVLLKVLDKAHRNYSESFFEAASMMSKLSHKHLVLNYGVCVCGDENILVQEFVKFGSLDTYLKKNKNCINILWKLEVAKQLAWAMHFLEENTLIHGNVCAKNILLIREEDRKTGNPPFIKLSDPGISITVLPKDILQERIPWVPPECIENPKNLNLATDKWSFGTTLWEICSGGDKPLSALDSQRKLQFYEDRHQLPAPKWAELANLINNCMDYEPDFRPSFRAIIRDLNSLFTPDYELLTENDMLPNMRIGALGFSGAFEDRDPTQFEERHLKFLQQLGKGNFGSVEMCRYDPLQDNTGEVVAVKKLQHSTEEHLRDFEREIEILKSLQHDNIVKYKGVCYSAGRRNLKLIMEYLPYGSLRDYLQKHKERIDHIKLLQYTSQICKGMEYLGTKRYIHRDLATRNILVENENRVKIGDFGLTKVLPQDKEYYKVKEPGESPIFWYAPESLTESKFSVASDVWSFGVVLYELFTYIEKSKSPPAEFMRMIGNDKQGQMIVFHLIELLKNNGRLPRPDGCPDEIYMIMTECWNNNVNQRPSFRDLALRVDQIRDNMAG

| Sequence | phosphorylation enrichment |
| --- | --- |
| FRPPYYHRNCM [HGD_Y334] | 0.89 |
| LEGKEYRMSGE [KRT3_Y511_E509K] | 0.923 |
| PLDGEYFTLQV [TP53_Y327_I332V] | 2.16 |
| DNEALYDTCFR [TUBB2B_Y208_I210T] | 1.23 |
| AALVQYYMEHH [PTPN11_Y80_E76A] | 0.745 |
| INMKEYCKKDY [NTN1_Y490_K489E] | 1.29 |
| SLEKGYELPDG [ACTC1_Y242_S241G] | 0.756 |
| RYVTRSIYNRE [HLA-DQB1_Y62_Y62S] | 1.1 |
| CENCHYPILPL [LCK_Y25_V28L] | 0.718 |
| MHRRQYELLGG [GNAS_Y391_L388R] | 0.48 |
| DYSLKYATDIP [APC_Y1183] | 1.25 |
| EIKLAYRRRPP [GRIN2B_Y1109_E1106K] | 0.861 |
| NIEPIYLNMLL [ATR_Y317_V316I] | 1.42 |
| AGIVDYNIIGW [MYH7_Y588] | 0.877 |
| VLVSQYEKLNA [AMZ2_Y26] | 0.638 |
| FSAPNCCYRCG [PPP2CA_Y265_Y265C] | 1.02 |
| RYVSRYIYNRE [HLA-DQB1_Y62_T60S] | 0.92 |

| Sequence | phosphorylation enrichment |
| --- | --- |
| IFSGIYFKPES [L2HGDH_Y102_H98Y_YF] | 6.32 |
| YENGEYIIRQG [PRKG1_Y247] | 0.913 |
| RLSVDCGKKSK [TUBA4A_Y161_Y161C] | 1.1 |
| KSVITYSPTTG [ITGB3BP_Y32] | 0.586 |
| CTTIHYIYMCN [TP53_Y234_N235I] | 0.907 |
| KMKGEYYRYLA [YWHAG_Y130_D129E] | 1.68 |
| LSPPVYLTNEW [NRK_Y885_I880L] | 1.54 |
| LIEQAYDNLHE [PRPF8_Y871_P874L] | 0.593 |
| FCRIMYDIFPF [INTS13_Y67_YF] | 1.57 |
| GRTNIYNNKKD [SLC26A3_Y520_K521N] | 0.691 |
| LISVSYDDWDY [GRIN2A_Y281] | 1.35 |
| ETAENYLGFTA [HSPA9_Y181_H184Y_YF] | 0.855 |
| MKKMHYVDPDH [ST3GAL5_Y99] | 0.392 |
| DASAVYLHDFQ [PLCG2_Y242] | 0.792 |
| DFPGIYSGYDD [POLR1C_Y33_N32I] | 0.946 |
| IVAREYYSDAD [CAMK2A_Y106_E109D] | 0.959 |
